{"source": "patent US6514942B1", "about": "“Methods and compositions for stimulating T-lymphocytes” (The Board of Regents, The University of Texas System, priority 1995, dated 2003)", "target": "T1, HLA-A2 of T2 cells (Homo sapiens, UniProt P04439, D140Y/D185E/D98H/E176V/E277Q/G131W/G231S/I119V/I121R/I166T/I218V/L300P/L318F/N151K/N90K/P208A/P217A/Q86G/Q94H/R138H/R169H/T345S)", "T1 construct": "cell surface expression of HLA-A2 is lower (30-40%) than in normal LBL lines transfected with HLA-A2; endogenous in cells; host or cells: T2 (transport deletion mutant) human lymphoblastoid cells, obtained from Dr. Peter Creswell", "test": "Reactivity of BB7.2 mAb with T2 cells after culture with peptide (immunofluorescence, FL1)", "type": "cell-based", "conditions": "peptide 50 μg/ml, overnight culture", "procedure": "FIG. 5B. Effects of HER-2 peptides on reactivity of BB7.2 mAb with T2 cells. Studies were performed as described in the legend to FIG. 5A.\nmAbs to CD3 (OKT3-FITC), CD4 (OKT4-FITC) and CD8 (OKT8-FITC) were obtained from Ortho Diagnostic (Ortho, Raritan, N.J.), mAb W6/32 (anti-HLA, -A, -B, -C) from Dako (Dako-Dakopatts, Denmark); HLA-A2 reacting mAb BB7.2 and MA2.1 from ATCC. Immunofluorescence studies were performed as described in Example 1.\nTo determine whether these peptides and longer analogs affect HLA-A2 conformation as an indication of HLA-A2 binding, the effects of HER-2 peptides on the reactivity of conformationally dependent mAb MA2.1 and BB.7.2 were examined with HLA-A2 of T2 cells. The human cell line T2 has a defect affecting endogenous peptide loading of MHC class I molecules. As a consequence, cell surface expression of HLA-A2 is lower (30-40%) than in normal LBL lines transfected with HLA-A2 (e.g., C1R) but the reactivity of MA2.1 and BB.7.2 mAb is increased when certain HLA-A2 binding peptides are added to the culture medium (Anderson et al., 1993). Although most human MHC class I molecules cannot be induced at the low temperatures used for their murine counterparts because of fundamental structural differences between human and mouse class I (Anderson et al., 1993), the fact that they express few endogenous (mainly signal) peptides (Zweerink et al., 1993) increases the sensitivity of detection of peptide-HLA-A2 interaction.", "data": [{"sequence": "ELVSEFSRV [Peptide C84, HER-2:971-979 analog, Met(P9) substituted by Val]", "values": [{"measurement": "FL1 of T2 cells stained with BB7.2 mAb", "result": "even higher increase in FL1"}]}]}
